Laboratory results as given in the nanobody polyreactivity screen of Harvey et al. (2022).

Test: yeast display, Sf9 membrane polyspecificity reagent, FACS + sequencing; frameworks hold sequencing errors
Method in brief: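 Sorting gates, low and high (top ~1%), were placed on anti-HA fluorescence to track expression and on streptavidin fluorescence to track reagent binding. A clone's polyreactivity label is taken from the gate it came out of. The reagent was 10% biotinylated, detergent-solubilized Sf9 membrane, applied for 1 hour at 4 °C to galactose-induced yeast display cells.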

| Sequence | polyreactivity (PSR sort gate) |
| --- | --- |
| QVQLVESGGGLVQAGGSLRLSCAATGSIFVPNTMGWYRQAPGKERELVADINSDTGRTYYADSVKGRFTISRDNAKNTVYLQMNSLKPEDTAVYYCAAEWYSFWSSVEYDYWGQGTQVTVSS | low polyreactivity |
| QVQLVESGGGLVQAGGSLRLSCAATGSNFTGNAMVWYRQAPGKERELVAAISRSGGSTYYADSVKGRYTISRDNAKNTVYLQMISLKPEDTAVYYCAAYRTHGPPRAIRFDYWGQGTQVTVSS | high polyreactivity |
| QVQLVESGGGLVQAGGSLRLSCAATGSTFGPYVMGWYRQAPGKERELVAVISGGSTDYADSVKGRFTISRDNAKNTVYLQMNTLKPEDTAVYYCNAVLYVQDRLTRVDYDYWGQGTQVTVSS | high polyreactivity |
| QVQLVESGGGLVQAGGSLRLSCAATGSTFVYYALGWYRPAPGKERELVAAITASGGGTYYADSVKGRFTISRDNAKNTVYLQMNSLKPEDTAVYYCNRGYDYWGQGTQVTGSS | low polyreactivity |
| QVQLVESGGGLVQAGGSLRLSCAATGSTFYRNAMGWYRQAPGKEREFVAAISFRGGGTYADSVKGRFTISRDNAKNTVFLQMNSLKPEDTAVYYCADDHLSYRRRYEYWGQGTQVTVSS | low polyreactivity |
| QVQLVESGGGLVQAGGSLRLSCAAWSIFYLNAMGWYRQAPGKERELVAAISSAGSTYYADSVKGRFTISRDNAKNTVYLQMNSLKPEDTAVYYCAAYWYDSPGVTEIWYDYWGQGTQVTVSS | low polyreactivity |
| QVQLVESGGGLVQAGGSLRLSCAAYAMGWYRQAPGKERELVAAISSSGGSTYYADSVKGRFTISRDNAKNTVYLQMNSLKPEDTAVYYCARDPDTYFFPPTGYYTSGFDSWGQGTQVTVSS | low polyreactivity |
| QVQLVESGGGLVQAGGSLRLSCAAYGFIFWYYDMGWYRQAPGKETELVAGITSGGSTNYEDSVKGRFTISRDNATNTVYLQMNRLKPEDTAVYYCAATYYGYHIRDDYWGQGTLVTVSS | low polyreactivity |
| QVQLVESGGGLVQAGGSLRLSCAAYGFTFAAYSMGWYRQAPGKEREFVAAITSRDGTTYYADSVKGRFTISGYNAKNTVYLQMNSLKPEDTAVFYCAKDHFNWGVSEVDSWRQGTQVTVSS | low polyreactivity |
| QVQLVESGGGLVQAGGSLRLSCAAYGFTIYYYTMGWYRQAPGKERELFAAISHSGSSTYYADSVKGRFTISRDNAKKTVNLQMNSLKPEDTAVYYCAASRSKNSALGGRVSIGDYWGQGTQVTVSS | high polyreactivity |
| QVQLVESGGGLVQAGGSLRLSCAAYGGTFNGNTMGWYRQAPGKERELVAVIDWSGGSTYYADSVKGRFTISRDNAKNTVYLQMNSLKPEDTAVYYCNADSDAQFREPKGLYYWGQGTQVTVSS | low polyreactivity |
| QVQLVESGGGLVQAGGSLRLSCAAYGIIFAYNAMGWYRQAPGKERELVATITDSGGSTSYADSEKGRFTISRDNAKNTVYLQMNSLKPEDTAVYYCAVLPVYWYWRNYVYLSGYDYWGQGTQVTVSS | low polyreactivity |
| QVQLVESGGGLVQAGGSLRLSCAAYGIIFRLKARGSNRQSPGKERELVAAITRRGGTTYYADSVKGRFTISRDNAKYTVYLQMNSLKPEDTAVFFCNTYYYWQYDWGQGTQVSVSS | high polyreactivity |
| QVQLVESGGGLVQAGGSLRLSCAAYGITFPSYTMGWYRQAPGKERELVATIRNGGSTYYADSVKGRFTISRDNAKNTVYLQMNSLKPEDTAVYYCAAKDTGYGYGVPRLDYWGQGTQVTVSS | low polyreactivity |
| QVQLVESGGGLVQAGGSLRLSCAAYGITFPVNAMGWYRQAPGKERELVAGIYFSGDSTYYADSVKGRFTISRDNAKNTVYLQMKSLKPEDTAVYYCAAEVWAFVYYFEYSTMYYWGHGTQVTVSS | low polyreactivity |
| QVQLVESGGGLVQAGGSLRLSCAAYGITFVPNAMGWYRQAPGKERELVAAITSGDSTNYADSVKGRFTISRDNAKNTVYLQMNSLKPDDTAVYYCAADSWAQRPNQGRVSLHYYWGQCTQVTVSS | low polyreactivity |

| Sequence | polyreactivity (PSR sort gate) |
| --- | --- |
| QVQLVESGGGLVQAGGSLRLSCAAYGITFYWYAMGRYRQAPGKEWELVAGISQSGSRTYYADSVKGRFTISRDNAKNTVYLQMNSLKPEDTAVYYCAARVRWSPTRTFEYWGQGTQVTVSS | high polyreactivity |
| QVQLVESGGGLVQAGGSLRLSCAAYGLIFTHNTMGWYRQAPGKERELVAAITTSGGTTYYADSVKGRFTISRDNAKNTVYLQMNSLKPEDTAVYYCNALYLSTRSGDYWGQGTQVTVSS | high polyreactivity |
| QVQLVESGGGLVQAGGSLRLSCAAYGLTFCLNAMGWYRQAPGKERYLVAAIRYSGGGTYADSVKGRFTISRDNAMNTVYLQMISLKPEDTAVYYCAALYYLGYPQFDYWGQGTQVTVSS | low polyreactivity |
| QVQLVESGGGLVQAGGSLRLSCAAYGLTFDSYAMGWYRQAPGKERELVAAISYGGGSTNFADSVKGRFTISRDNAKNTVYLQLNSLKPVDTAVYYCGAEPGYYDEYGYWGQGTQVTVSS | low polyreactivity |
| QVQLVESGGGLVQAGGSLRLSCAAYGRIFDNNAMGWYRQAPGKERELVAAIDWRGGSTDYADSVKGRFTISRDNAKNTVYLQMNSLKPEDTAVYYCVAGHVPYWHGNSYDYWGQGTQVTVSS | low polyreactivity |
| QVQLVESGGGLVQAGGSLRLSCAAYGRIFYYNAMGWFRQAPGKERELVASIDNGGSTNYADSVKGRFTISRDNAKNTVYLQMNSLKPEDTAVYYCNVDLYYEVSHVFLYEYDYWGQGTQVTVSS | low polyreactivity |
| QVQLVESGGGLVQAGGSLRLSCAAYGRILYYYAMGWYRQAPGKETELVAAITETSGSTYYADSVKGRFTISRDNAKTTVYLQMNSLHPEDTAVYYCAASSTRGHYTAYDYWGQGTHVTVSS | low polyreactivity |
| QVQLVESGGGLVQAGGSLRLSCAAYGRTFLFYAMGWYIQAPGKERELVAAITRSDGSTYYADSVKGRFTISRDNAKNTVYLQMNSLKPEDTAVYYCAAEYVSILRDYDYWGQGTQVTVSS | low polyreactivity |
| QVQLVESGGGLVQAGGSLRLSCAAYGSIFEGNPMGWYRQAPGKERELVASISGDGSTNYADSVKGRFTISRDNAKNTVYLQMNSLKPEDTAVYYCNADTISEPGFHMDYWGQGTQVTVSS | low polyreactivity |
| QVQLVESGGGLVQAGGSLRLSCAAYGSIFIYAMGGYRQAPGKVRELVAAISSSGGSTYYADSVKGRFTISRDNAKNTVYLQMNSLKPEDTAVYYCAARYTYSGDKGYYWGQGTQVTVSS | high polyreactivity |
| QVQLVESGGGLVQAGGSLRLSCAAYGSIFKWYTMGWYRQAPGKERELVADINWNGGRTYYADSVKGRFTISRDYAKNTVYLQMNSLKPEDTAVFDCAASRGDYWGQGTQVTVSS | high polyreactivity |
| QVQLVESGGGLVQAGGSLRLSCAAYGSNFYLYAMGWYRQAPGKERELVAAITRGGTTNYADSVKGRFTISRDNAKNTVYLQMNSLKPEDTAVYYCAKEVTTLLSLYEIVDRDYWGQGTQVTVSS | low polyreactivity |
| QVQLVESGGGLVQAGGSLRLSCAAYGSTFCVYAMGWYRQAQGKERELVAAINFSGRTYYADSVKVRFSISRDNAKNTVYVQMNSLKPEDTAVYYCAARIIFEDVGTKYYYWGQGTHVTVSS | high polyreactivity |
| QVQLVESGGGLVQAGGSLRLSCAAYGSTFQPYAMGWYRPATGKEREFVATISGSAGSTYYADSVKGRFKISRDNAKNTVYLQMNSLKPEDTAVDYCNADSGWFGYDYWGQGTQVTVSS | low polyreactivity |
| QVQLVESGGGLVQAGGSLRLSCAAYGSTFRYYAMGWYRQAPGKERELVAAITSSGGSTYYADSVKGRFTISRDNAKNTVFLQMNSLKPEDTAVYYCAVAVKNWVKLNYWGQGSQVTVSS | high polyreactivity |
